# Data reported in paper doi:10.1101/2020.05.24.113621 (bioRxiv, 2020).
# Biological target: the molecule itself
# Test: crystal structure
protein,measurement,value
GNYNVF [hnRNPA2 mutant core segment GNYNVF (residues 286-291 with D290V)],binding result,binds
